Here are results for seven substances from article PMC3807590.

Assay [1] has as its target Chicken skeletal muscle α-actin (F-actin, unlabeled) (chicken) (UniProt P68139). The assay can be described thus: co-sedimentation; increasing tropomyosin (0-10 µM) mixed with 5 µM actin in F-buffer (2 mM HEPES, pH 7.6, 40 mM NaCl, 5 mM MgCl2) at 22°C, ultracentrifuged; supernatants and pellets on SDS-PAGE; apparent constants (Kapp).
Assay [2] has the same target.
The target of assay [3] is Chicken skeletal muscle α-actin labeled with DABMI at Cys374 (chicken) (UniProt P68139).

For Chimeric rat α-tropomyosin TM1b9a, the Ka in assay [1] amounted to 1.27e+07 M⁻¹.

For the substance “Ser269Cys-TM2 labeled with AEDANS (natural protein)”, the Ka in assay [1] is 2.04e+07 M⁻¹.

For the substance “Recombinant rat non-muscle α-tropomyosin isoform TM2 (natural protein)”, the Ka in assay [1] came to 2.25e+07 M⁻¹.

“Recombinant rat non-muscle α-tropomyosin isoform TM5a (natural protein)”: the Ka in assay [1] was determined as 1.42e+07 M⁻¹.

Consider “Ser232Cys-TM5a labeled with AEDANS (natural protein)”, for which the Ka in assay [1] was 1.49e+07 M⁻¹.

In the case of “Chicken skeletal myosin subfragment 1 (S1) (domain or fragment)”, in assay [2], the Actin–myosin S1 ATPase activity in the presence of TM1b9a/A232C; 0.8 µM S1, 9.2 µM F-actin, 1.2 µM tropomyosin (nmol Pi/mg S1/min) was 126; the Actin–myosin S1 ATPase activity in the presence of TM1b9a; 0.8 µM S1, 9.2 µM F-actin, 1.2 µM tropomyosin (nmol Pi/mg S1/min) worked out at 108; the Actin–myosin S1 ATPase activity in the presence of TM2/S269C; 0.8 µM S1, 9.2 µM F-actin, 1.2 µM tropomyosin (nmol Pi/mg S1/min) amounted to 112; the Actin–myosin S1 ATPase activity in the presence of TM2; 0.8 µM S1, 9.2 µM F-actin, 1.2 µM tropomyosin (nmol Pi/mg S1/min) was found to be 91.7. Moreover, in assay [2], the Actin–myosin S1 ATPase activity in the presence of TM5a/S232C; 0.8 µM S1, 9.2 µM F-actin, 1.2 µM tropomyosin (nmol Pi/mg S1/min) turned out to be 184; the Actin–myosin S1 ATPase activity in the presence of TM5a; 0.8 µM S1, 9.2 µM F-actin, 1.2 µM tropomyosin (nmol Pi/mg S1/min) is 169; the Actin–myosin S1 ATPase activity in the presence of skTM/A269C; 0.8 µM S1, 9.2 µM F-actin, 1.2 µM tropomyosin (nmol Pi/mg S1/min) is 104; the Actin–myosin S1 ATPase activity in the presence of skTM; 0.8 µM S1, 9.2 µM F-actin, 1.2 µM tropomyosin (nmol Pi/mg S1/min) was determined as 103. For the same substance, in assay [3], the S1/actin molar ratio of strongly bound myosin heads required for half-maximal change in FRET between AEDANS-TM1b9a/A232C and DABMI-actin (S1/actin molar ratio) is 0.14; the S1/actin molar ratio of strongly bound myosin heads required for half-maximal change in FRET between AEDANS-TM2/S269C and DABMI-actin (S1/actin molar ratio) came out at 0.12; the S1/actin molar ratio of strongly bound myosin heads required for half-maximal change in FRET between AEDANS-TM5a/S232C and DABMI-actin (S1/actin molar ratio) came out at 0.08; the S1/actin molar ratio of strongly bound myosin heads required for half-maximal change in FRET between AEDANS-skTM/A269C and DABMI-actin (S1/actin molar ratio) was determined as 0.15.

Take Ala232Cys-TM1b9a labeled with AEDANS: the Ka in assay [1] is 1.24e+07 M⁻¹.
